1 molecule from PMC5543128 can be followed below.

The data set addresses T1, FAM-αC-conotoxin PrXA (Conus parius, UniProt P0C8S5 52-83).
T1 chain: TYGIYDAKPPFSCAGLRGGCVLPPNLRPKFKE
Nature of the data set: fluorescence anisotropy; no anisotropy change. The conditions noted are these: tags: 5,6-carboxyfluorescein (FAM).

B1: S1 scramble (ssDNA)
DNA: GCCTGTTGTGAGCCTCCTGTCGAAGGGGATGGACCCCTACTTCATTCGCCCGCCTTGAGCGTTTATTCTTGTCTCCC
With B1, the binding result is “no binding”.
